Results from US20230220021A1 (UNIVERSITY OF COPENHAGEN, published 2023).
[ ]: non-standard residue; d: D form.

B1: cyclic nNOS β-hairpin peptide D114G (peptide)
peptide: cyclo(THLETTFTGGGTPKTIRVTQ[dP]GQ)
SMILES: CC[C@H](C)[C@@H]1NC(=O)[C@H]([C@@H](C)O)NC(=O)[C@H](CCCCN)NC(=O)[C@@H]2CCCN2C(=O)[C@H]([C@@H](C)O)NC(=O)CNC(=O)CNC(=O)CNC(=O)[C@H]([C@@H](C)O)NC(=O)[C@H](Cc2ccccc2)NC(=O)[C@H]([C@@H](C)O)NC(=O)[C@H]([C@@H](C)O)NC(=O)[C@H](CCC(=O)O)NC(=O)[C@H](CC(C)C)NC(=O)[C@H](Cc2c[nH]cn2)NC(=O)[C@H]([C@@H](C)O)NC(=O)[C@H](CCC(N)=O)NC(=O)CNC(=O)[C@H]2CCCN2C(=O)[C@H](CCC(N)=O)NC(=O)[C@H]([C@@H](C)O)NC(=O)[C@H](C(C)C)NC(=O)[C@H](CCCNC(=N)N)NC1=O
B2: cyclic nNOS β-hairpin peptide G115R (peptide)
peptide: cyclo(THLETTFTGDRTPKTIRVTQ[dP]GQ)
SMILES: CC[C@H](C)[C@@H]1NC(=O)[C@H]([C@@H](C)O)NC(=O)[C@H](CCCCN)NC(=O)[C@@H]2CCCN2C(=O)[C@H]([C@@H](C)O)NC(=O)[C@H](CCCNC(=N)N)NC(=O)[C@H](CC(=O)O)NC(=O)CNC(=O)[C@H]([C@@H](C)O)NC(=O)[C@H](Cc2ccccc2)NC(=O)[C@H]([C@@H](C)O)NC(=O)[C@H]([C@@H](C)O)NC(=O)[C@H](CCC(=O)O)NC(=O)[C@H](CC(C)C)NC(=O)[C@H](Cc2c[nH]cn2)NC(=O)[C@H]([C@@H](C)O)NC(=O)[C@H](CCC(N)=O)NC(=O)CNC(=O)[C@H]2CCCN2C(=O)[C@H](CCC(N)=O)NC(=O)[C@H]([C@@H](C)O)NC(=O)[C@H](C(C)C)NC(=O)[C@H](CCCNC(=N)N)NC1=O
B3: cyclic nNOS β-hairpin peptide H106F (peptide)
peptide: cyclo(TFLETTFTGDGTPKTIRVTQ[dP]GQ)
SMILES: CC[C@H](C)[C@@H]1NC(=O)[C@H]([C@@H](C)O)NC(=O)[C@H](CCCCN)NC(=O)[C@@H]2CCCN2C(=O)[C@H]([C@@H](C)O)NC(=O)CNC(=O)[C@H](CC(=O)O)NC(=O)CNC(=O)[C@H]([C@@H](C)O)NC(=O)[C@H](Cc2ccccc2)NC(=O)[C@H]([C@@H](C)O)NC(=O)[C@H]([C@@H](C)O)NC(=O)[C@H](CCC(=O)O)NC(=O)[C@H](CC(C)C)NC(=O)[C@H](Cc2ccccc2)NC(=O)[C@H]([C@@H](C)O)NC(=O)[C@H](CCC(N)=O)NC(=O)CNC(=O)[C@H]2CCCN2C(=O)[C@H](CCC(N)=O)NC(=O)[C@H]([C@@H](C)O)NC(=O)[C@H](C(C)C)NC(=O)[C@H](CCCNC(=N)N)NC1=O
B4: cyclic nNOS β-hairpin peptide I120Y (peptide)
peptide: cyclo(THLETTFTGDGTPKTYRVTQ[dP]GQ)
SMILES: CC(C)C[C@@H]1NC(=O)[C@H](Cc2c[nH]cn2)NC(=O)[C@H]([C@@H](C)O)NC(=O)[C@H](CCC(N)=O)NC(=O)CNC(=O)[C@H]2CCCN2C(=O)[C@H](CCC(N)=O)NC(=O)[C@H]([C@@H](C)O)NC(=O)[C@H](C(C)C)NC(=O)[C@H](CCCNC(=N)N)NC(=O)[C@H](Cc2ccc(O)cc2)NC(=O)[C@H]([C@@H](C)O)NC(=O)[C@H](CCCCN)NC(=O)[C@@H]2CCCN2C(=O)[C@H]([C@@H](C)O)NC(=O)CNC(=O)[C@H](CC(=O)O)NC(=O)CNC(=O)[C@H]([C@@H](C)O)NC(=O)[C@H](Cc2ccccc2)NC(=O)[C@H]([C@@H](C)O)NC(=O)[C@H]([C@@H](C)O)NC(=O)[C@H](CCC(=O)O)NC1=O
B5: cyclic nNOS β-hairpin peptide D114K (peptide)
peptide: cyclo(THLETTFTGKGTPKTIRVTQ[dP]GQ)
SMILES: CC[C@H](C)[C@@H]1NC(=O)[C@H]([C@@H](C)O)NC(=O)[C@H](CCCCN)NC(=O)[C@@H]2CCCN2C(=O)[C@H]([C@@H](C)O)NC(=O)CNC(=O)[C@H](CCCCN)NC(=O)CNC(=O)[C@H]([C@@H](C)O)NC(=O)[C@H](Cc2ccccc2)NC(=O)[C@H]([C@@H](C)O)NC(=O)[C@H]([C@@H](C)O)NC(=O)[C@H](CCC(=O)O)NC(=O)[C@H](CC(C)C)NC(=O)[C@H](Cc2c[nH]cn2)NC(=O)[C@H]([C@@H](C)O)NC(=O)[C@H](CCC(N)=O)NC(=O)CNC(=O)[C@H]2CCCN2C(=O)[C@H](CCC(N)=O)NC(=O)[C@H]([C@@H](C)O)NC(=O)[C@H](C(C)C)NC(=O)[C@H](CCCNC(=N)N)NC1=O
B6: cyclic nNOS β-hairpin peptide H106E (peptide)
peptide: cyclo(TELETTFTGDGTPKTIRVTQ[dP]GQ)
SMILES: CC[C@H](C)[C@@H]1NC(=O)[C@H]([C@@H](C)O)NC(=O)[C@H](CCCCN)NC(=O)[C@@H]2CCCN2C(=O)[C@H]([C@@H](C)O)NC(=O)CNC(=O)[C@H](CC(=O)O)NC(=O)CNC(=O)[C@H]([C@@H](C)O)NC(=O)[C@H](Cc2ccccc2)NC(=O)[C@H]([C@@H](C)O)NC(=O)[C@H]([C@@H](C)O)NC(=O)[C@H](CCC(=O)O)NC(=O)[C@H](CC(C)C)NC(=O)[C@H](CCC(=O)O)NC(=O)[C@H]([C@@H](C)O)NC(=O)[C@H](CCC(N)=O)NC(=O)CNC(=O)[C@H]2CCCN2C(=O)[C@H](CCC(N)=O)NC(=O)[C@H]([C@@H](C)O)NC(=O)[C@H](C(C)C)NC(=O)[C@H](CCCNC(=N)N)NC1=O
B7: cyclic nNOS β-hairpin peptide H106Y (peptide)
peptide: cyclo(TYLETTFTGDGTPKTIRVTQ[dP]GQ)
SMILES: CC[C@H](C)[C@@H]1NC(=O)[C@H]([C@@H](C)O)NC(=O)[C@H](CCCCN)NC(=O)[C@@H]2CCCN2C(=O)[C@H]([C@@H](C)O)NC(=O)CNC(=O)[C@H](CC(=O)O)NC(=O)CNC(=O)[C@H]([C@@H](C)O)NC(=O)[C@H](Cc2ccccc2)NC(=O)[C@H]([C@@H](C)O)NC(=O)[C@H]([C@@H](C)O)NC(=O)[C@H](CCC(=O)O)NC(=O)[C@H](CC(C)C)NC(=O)[C@H](Cc2ccc(O)cc2)NC(=O)[C@H]([C@@H](C)O)NC(=O)[C@H](CCC(N)=O)NC(=O)CNC(=O)[C@H]2CCCN2C(=O)[C@H](CCC(N)=O)NC(=O)[C@H]([C@@H](C)O)NC(=O)[C@H](C(C)C)NC(=O)[C@H](CCCNC(=N)N)NC1=O
B8: cyclic nNOS β-hairpin peptide D114P (peptide)
peptide: cyclo(THLETTFTGPGTPKTIRVTQ[dP]GQ)
SMILES: CC[C@H](C)[C@@H]1NC(=O)[C@H]([C@@H](C)O)NC(=O)[C@H](CCCCN)NC(=O)[C@@H]2CCCN2C(=O)[C@H]([C@@H](C)O)NC(=O)CNC(=O)[C@@H]2CCCN2C(=O)CNC(=O)[C@H]([C@@H](C)O)NC(=O)[C@H](Cc2ccccc2)NC(=O)[C@H]([C@@H](C)O)NC(=O)[C@H]([C@@H](C)O)NC(=O)[C@H](CCC(=O)O)NC(=O)[C@H](CC(C)C)NC(=O)[C@H](Cc2c[nH]cn2)NC(=O)[C@H]([C@@H](C)O)NC(=O)[C@H](CCC(N)=O)NC(=O)CNC(=O)[C@H]2CCCN2C(=O)[C@H](CCC(N)=O)NC(=O)[C@H]([C@@H](C)O)NC(=O)[C@H](C(C)C)NC(=O)[C@H](CCCNC(=N)N)NC1=O
B9: cyclic nNOS β-hairpin peptide I120R (peptide)
peptide: cyclo(THLETTFTGDGTPKTRRVTQ[dP]GQ)
SMILES: CC(C)C[C@@H]1NC(=O)[C@H](Cc2c[nH]cn2)NC(=O)[C@H]([C@@H](C)O)NC(=O)[C@H](CCC(N)=O)NC(=O)CNC(=O)[C@H]2CCCN2C(=O)[C@H](CCC(N)=O)NC(=O)[C@H]([C@@H](C)O)NC(=O)[C@H](C(C)C)NC(=O)[C@H](CCCNC(=N)N)NC(=O)[C@H](CCCNC(=N)N)NC(=O)[C@H]([C@@H](C)O)NC(=O)[C@H](CCCCN)NC(=O)[C@@H]2CCCN2C(=O)[C@H]([C@@H](C)O)NC(=O)CNC(=O)[C@H](CC(=O)O)NC(=O)CNC(=O)[C@H]([C@@H](C)O)NC(=O)[C@H](Cc2ccccc2)NC(=O)[C@H]([C@@H](C)O)NC(=O)[C@H]([C@@H](C)O)NC(=O)[C@H](CCC(=O)O)NC1=O
B10: cyclic nNOS β-hairpin peptide F111V (peptide)
peptide: cyclo(THLETTVTGDGTPKTIRVTQ[dP]GQ)
SMILES: CC[C@H](C)[C@@H]1NC(=O)[C@H]([C@@H](C)O)NC(=O)[C@H](CCCCN)NC(=O)[C@@H]2CCCN2C(=O)[C@H]([C@@H](C)O)NC(=O)CNC(=O)[C@H](CC(=O)O)NC(=O)CNC(=O)[C@H]([C@@H](C)O)NC(=O)[C@H](C(C)C)NC(=O)[C@H]([C@@H](C)O)NC(=O)[C@H]([C@@H](C)O)NC(=O)[C@H](CCC(=O)O)NC(=O)[C@H](CC(C)C)NC(=O)[C@H](Cc2c[nH]cn2)NC(=O)[C@H]([C@@H](C)O)NC(=O)[C@H](CCC(N)=O)NC(=O)CNC(=O)[C@H]2CCCN2C(=O)[C@H](CCC(N)=O)NC(=O)[C@H]([C@@H](C)O)NC(=O)[C@H](C(C)C)NC(=O)[C@H](CCCNC(=N)N)NC1=O
B11: cyclic nNOS β-hairpin peptide D114R (peptide)
peptide: cyclo(THLETTFTGRGTPKTIRVTQ[dP]GQ)
SMILES: CC[C@H](C)[C@@H]1NC(=O)[C@H]([C@@H](C)O)NC(=O)[C@H](CCCCN)NC(=O)[C@@H]2CCCN2C(=O)[C@H]([C@@H](C)O)NC(=O)CNC(=O)[C@H](CCCNC(=N)N)NC(=O)CNC(=O)[C@H]([C@@H](C)O)NC(=O)[C@H](Cc2ccccc2)NC(=O)[C@H]([C@@H](C)O)NC(=O)[C@H]([C@@H](C)O)NC(=O)[C@H](CCC(=O)O)NC(=O)[C@H](CC(C)C)NC(=O)[C@H](Cc2c[nH]cn2)NC(=O)[C@H]([C@@H](C)O)NC(=O)[C@H](CCC(N)=O)NC(=O)CNC(=O)[C@H]2CCCN2C(=O)[C@H](CCC(N)=O)NC(=O)[C@H]([C@@H](C)O)NC(=O)[C@H](C(C)C)NC(=O)[C@H](CCCNC(=N)N)NC1=O

The binders below were run against T1, (7× His)-PSD-95-PDZ2 wild type (UniProt P78352 160-246) (assay: FP competition).
T1 construct: domain: PDZ2; recombinant from E. coli; also called PSD-95-PDZ2 WT; not shown: 7x His tag
T1 sequence (P78352 160-246): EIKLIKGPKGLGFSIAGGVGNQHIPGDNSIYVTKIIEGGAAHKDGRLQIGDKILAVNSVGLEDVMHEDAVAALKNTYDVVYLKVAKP

| Ki | Relative Ki (Ki mut/Ki WT) | Binder |
| --- | --- | --- |
| 2590 nM | 1.73 | B1 |
| 750 nM | 0.5 | B2 |
| 1190 nM | 0.79 | B3 |
| 1600 nM | 1.07 | B4 |
| 2870 nM | 1.91 | B5 |
| 6190 nM | 4.13 | B6 |
| 1180 nM | 0.79 | B7 |
| 2400 nM | 1.6 | B8 |
| 1760 nM | 1.17 | B9 |
| 77400 nM | 51.6 | B10 |
| 990 nM | 0.66 | B11 |
